Assay results reported in PMC8391968.

Target: transcriptional enhancer associated domain (TEAD) transcription factor (human (endogenous in A375)) (UniProt P28347)
Chain of UniProt P28347 (P28347 whole entry, the tested form may be a part): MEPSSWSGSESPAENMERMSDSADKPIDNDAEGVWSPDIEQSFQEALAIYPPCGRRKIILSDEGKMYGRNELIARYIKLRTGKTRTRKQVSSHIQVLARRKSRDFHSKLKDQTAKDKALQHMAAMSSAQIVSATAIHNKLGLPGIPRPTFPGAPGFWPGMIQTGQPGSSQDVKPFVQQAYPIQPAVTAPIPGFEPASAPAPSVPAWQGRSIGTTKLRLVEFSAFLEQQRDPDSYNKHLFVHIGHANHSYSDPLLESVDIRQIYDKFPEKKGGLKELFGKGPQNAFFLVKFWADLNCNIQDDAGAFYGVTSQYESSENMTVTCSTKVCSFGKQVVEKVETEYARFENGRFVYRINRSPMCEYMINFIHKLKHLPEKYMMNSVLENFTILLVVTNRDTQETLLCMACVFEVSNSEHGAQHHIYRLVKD

TEAD luciferase reporter (8xGTIIC) in A375 TEAD luciferase-stable melanoma cells, decrease of luciferase expression with the small molecule BY03 at 10 nM to 10 μM: 75%
TEAD-dependent luciferase reporter (8xGTIIC) in HEK293T cells with ectopic expression of YAP-S127A, decrease of luciferase expression with the small molecule BY03 at 20 μM: 68%
Substance: yes-associated protein (YAP) (from UniProt P46937 1-504) (natural protein)
